Reference: patent US20230192860A1 (Bristol-Myers Squibb, published 2023)

Columns and labels:
[1] = target: T1, monovalent hVISTA-ECD (amino acids 32-193 of SEQ ID NO: 1 with a 7xHis tail) (human, UniProt Q9H7M9 33-193); experiment: SPR, pH 7.4 over pH 6.0
T1 construct: analyte of the SPR assays; also called huVISTA-His; human VISTA-ECD
Experimental: (§1) Further binding kinetic experiments were performed at various pHs on VISTA antibodies described herein by SPR as generally described in Example 9 above. Antibodies were normalized to 50 nM concentration in PBST pH 7.4 and captured on a Protein A CM5 chip (ID 4931) by injecting for 45 seconds at a 5 µL/min flow rate. An 8-point human VISTA titration ([…]) was prepared in PBST at pH 7.4, 6.9, 6.45, and 6.0. Titrations were injected over the captured antibodies for 180 seconds at 30 µL/min. Sensorgrams were fit to a 1:1 binding model in T200 evaluation software and the kinetic constants were reported.
(§2) Each table reports the data at one of the four tested pHs (7.4, 6.9, 6.45, and 6.0, respectively). The 8-point hVISTA titration used in these assays was chosen to provide increased confidence in kinetic values reported at neutral pH conditions. A relatively stringent cutoff for non-binding was applied in this assay. Certain progeny of P1-061029 antibody (P1-068757, ‘759, ‘765, ‘771, and ‘775) show no binding to hVISTA at micromolar concentrations at pH 7.4, while ‘761 and ‘767 show no binding to hVISTA at 100 nM at pH 7.4 but do show binding to hVISTA at micromolar concentrations.

[2] = target: T1, monovalent hVISTA-ECD (amino acids …); experiment: SPR, Ab on Protein A, hVISTA 100-7.8 nM, pH 7.4
Experimental: as §1

[3] = target: T2, hVISTA-ECD 6-His tag (human, UniProt Q9H7M9 33-193); experiment: SPR, Ab on Protein A, hVISTA analyte, pH 6.9
T2 construct: also called monovalent hVISTA-ECD; human VISTA
T2 sequence (Q9H7M9 other isoform, or with tags, fused parts or gaps limits assumed): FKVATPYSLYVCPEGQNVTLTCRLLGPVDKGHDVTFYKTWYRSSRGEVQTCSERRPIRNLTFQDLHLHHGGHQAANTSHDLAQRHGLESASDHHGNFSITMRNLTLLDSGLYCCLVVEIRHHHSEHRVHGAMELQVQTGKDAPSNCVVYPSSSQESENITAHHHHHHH
Experimental: as §1, §2

[4] = target: T2, hVISTA-ECD 6-His tag; experiment: SPR, Ab on Protein A, hVISTA analyte, pH 6.0
[5] = target: T2, hVISTA-ECD 6-His tag; experiment: SPR, Ab on Protein A, hVISTA analyte, pH 6.45
[6] = target: T2, hVISTA-ECD 6-His tag; experiment: SPR; KD at pH 6.9 over KD at pH 6.0 (head prints 7.4)
Experimental: as §1, §2

[7] = target: T2, hVISTA-ECD 6-His tag; experiment: SPR; kd at pH 6.9 over kd at pH 6.0 (head prints 7.4)
Experimental: as §1, §2

[8] = target: T2, hVISTA-ECD 6-His tag; experiment: SPR; KD at pH 6.45 over KD at pH 6.0 (head prints 7.4)
[9] = target: T2, hVISTA-ECD 6-His tag; experiment: SPR; kd at pH 6.45 over kd at pH 6.0 (head prints 7.4)
Experimental: as §1, §2

[10] = target: T1, monovalent hVISTA-ECD (amino acids …); experiment: SPR 37C, Ab on Protein A, hVISTA-ECD 50-5 nM, pH 6.0, average
Experimental: Binding of several preparations of each of the ‘029 progeny clones and of the parent ‘029 antibodies, formatted as IgG1.3 antibodies, to human VISTA at pH 6.0 and 7.4 was measured by Surface plasmon resonance (SPR). SPR analysis was performed to measure koff and KD binding affinity measurements for VISTA Abs at acidic and neutral pHs using a Biacore® T100 instrument (GE Healthcare). […] Antibodies were diluted to 25 nM in PBST pH 7.4, and were captured across active biosensor flow cells at 5 ul/min for 60 seconds. A concentration series of 50 - 5 nM monovalent hVISTA-ECD (SEQ ID NO: 325) was prepared in pH 7.4 and 6.0 running buffers, and was injected over the captured antibodies at 40 ul/min to measure association and dissociation. Two 15 second injections of 10 mM glycine pH 1.5 were used to regenerate the Protein A capture surface between assay cycles. Rate constants ka (kₒₙ) and kd (koff) were derived from reference flow cell and 0 nM blank-subtracted sensorgrams, and were fit to a 1:1 binding model in Biacore® T200 Evaluation Software v.2.0. The affinity constant, KD was calculated as the ratio of rate constants koff/kₒₙ for each VISTA antibody.

T1 sequence (Q9H7M9 other isoform, or with tags, fused parts or gaps limits assumed): as above

7.4 KD/ 6.0 KD [1] | 7.4 kd/ 6.0 kd [1] | Kd [2] [nM] | koff [2] [s⁻¹] | kon [2] [M⁻¹ s⁻¹] | Kd [4] [nM] | koff [4] [s⁻¹] | kon [4] [M⁻¹ s⁻¹] | Kd [5] [nM] | koff [5] [s⁻¹] | kon [5] [M⁻¹ s⁻¹] | 7.4 KD/ 6.0 KD [8] | 7.4 kd/ 6.0 kd [9] | also measured | Binder
0.1 | 0 | 1.42 | 0.000871 | 613000 | – | – | – | – | – | – | – | – | – | P1-061520 (41F11 VK_A64G) (antibody, V domains shown, tied through the name 41F11 and the A64G change; also called P1-061520-21; VISTA.4.A64G) VH: QVQLVESGGGLVKPGGSLRLSCAASGFTFSDYYMSWIRQAPGKGLEWVSYISNSGSPIYYADSVKGRFTISRDNAKNSLYLQMNSLRAEDTAVYYCARDLPGWYFDLWGRGTLVTVSS VL: EIVLTQSPATLSLSPGERATLSCRASQSVSSYLAWYQQKPGQAPRLLIYDASNRATGIPARFSGSGSGTDFTLTISSLEPEDFAVYYCQQRNNWPRTFGQGTKVEIKR
696 | 7 | 6900 | 0.016 | 2400 | – | – | – | – | – | – | – | – | – | P1-070976 (41F11_VH_T28P_Y50W_S55E_D95H_L96E_P97E_Y100E; Vk_A64G) (antibody, V domains shown, also called P1-070976-11) VH: QVQLVESGGGLVKPGGSLRLSCAASGFPFSDYYMSWIRQAPGKGLEWVSWISNSGEPIYYADSVKGRFTISRDNAKNSLYLQMNSLRAEDTAVYYCARHEEGWEFDLWGRGTLVTVSS VL: EIVLTQSPATLSLSPGERATLSCRASQSVSSYLAWYQQKPGQAPRLLIYDASNRATGIPARFSGSGSGTDFTLTISSLEPEDFAVYYCQQRNNWPRTFGQGTKVEIK
625 | 18.9 | 3400 | 0.044 | 13000 | – | – | – | – | – | – | – | – | – | P1-070868 (P1-068761_E55A) (antibody, human IgG1, kappa, V domains shown, IgG1.3; also called P1-070868-6) VH: EVQLVESGGGLVQPGKSLRLSCAASGFTLEDEAMHWVRQAPGKGLEWVSGINWNSAEIGYADSVKGRFTISRDNAKNSLYLQMNSLRTEDTALYYCAKVPGYSHGWIDAEDVWGQGTMVTVSS VL: not shown
731 | 15.3 | 4400 | 0.029 | 6500 | – | – | – | – | – | – | – | – | – | P1-070906 (P1-068767_D52N) (antibody, human IgG1, kappa, V domains shown, IgG1.3; also called P1-070906-6) VH: EVQLVESGGGLVQPGKSLRLSCAASGFTLEDYAMHWVRQAPGKGLEWVSGINWNSENIGYADSVKGRFTISRDNAKNSLYLQMNSLRTEDTALYYCAKVPGYSGGWIDAEDDWGQGTMVTVSS VL: not shown
563 | 19.4 | 3700 | 0.038 | 10000 | – | – | – | – | – | – | – | – | – | P1-070916 (P1-068767_D52N_E55A) (antibody, human IgG1, kappa, V domains shown, IgG1.3; also called P1-070916-6) VH: EVQLVESGGGLVQPGKSLRLSCAASGFTLEDYAMHWVRQAPGKGLEWVSGINWNSANIGYADSVKGRFTISRDNAKNSLYLQMNSLRTEDTALYYCAKVPGYSGGWIDAEDDWGQGTMVTVSS VL: not shown
34.5 | 8.6 | 350 | 0.024 | 67000 | – | – | – | – | – | – | – | – | – | P1-070908 (P1-068767_E55A) (antibody, human IgG1, kappa, V domains shown, IgG1.3; also called P1-070908-6) VH: EVQLVESGGGLVQPGKSLRLSCAASGFTLEDYAMHWVRQAPGKGLEWVSGIDWNSANIGYADSVKGRFTISRDNAKNSLYLQMNSLRTEDTALYYCAKVPGYSGGWIDAEDDWGQGTMVTVSS VL: not shown
396 | 14.6 | 4200 | 0.035 | 8400 | – | – | – | – | – | – | – | – | – | P1-070914 (P1-068767_E30D_D52N) (antibody, human IgG1, kappa, V domains shown, IgG1.3; also called P1-070914-3) VH: EVQLVESGGGLVQPGKSLRLSCAASGFTLDDYAMHWVRQAPGKGLEWVSGINWNSENIGYADSVKGRFTISRDNAKNSLYLQMNSLRTEDTALYYCAKVPGYSGGWIDAEDDWGQGTMVTVSS VL: not shown
– | – | – | – | – | 2.91 | 0.00527 | 1.81e+06 | 5.13 | 0.0045 | 876000 | 1.8 | 0.9 | Kd [3]: 7.13 nM; koff [3]: 0.00416 s⁻¹; kon [3]: 583000 M⁻¹ s⁻¹; 7.4 KD/ 6.0 KD [6]: 2.5; 7.4 kd/ 6.0 kd [7]: 0.8 | P1-061029 (antibody, human IgG1, kappa, also called P1-061029-18; P1-061029.IgG1.3) heavy: EVQLVESGGGLVQPGKSLRLSCAASGFTLDDYAMHWVRQAPGKGLEWVSGINWNSANIGYADSVKGRFTISRDNAKNSLYLQMNSLRTEDTALYYCAKVPGYSGGWIDAFDVWGQGTMVTVSSASTKGPSVFPLAPSSKSTSGGTAALGCLVKDYFPEPVTVSWNSGALTSGVHTFPAVLQSSGLYSLSSVVTVPSSSLGTQTYICNVNHKPSNTKVDKRVEPKSCDKTHTCPPCPAPEAEGAPSVFLFPPKPKDTLMISRTPEVTCVVVDVSHEDPEVKFNWYVDGVEVHNAKTKPREEQYNSTYRVVSVLTVLHQDWLNGKEYKCKVSNKALPAPIEKTISKAKGQPREPQVYTLPPSREEMTKNQVSLTCLVKGFYPSDIAVEWESNGQPENNYKTTPPVLDSDGSFFLYSKLTVDKSRWQQGNVFSCSVMHEALHNHYTQKSLSLSPG light: not shown
– | – | – | – | – | 77 | 0.009 | 120000 | 220 | 0.017 | 77000 | 2.8 | 1.8 | – | P1-068775 (antibody, human IgG1, kappa, V domains shown, also called P1-068775-8; 029 progeny) VH: EVQLVESGGGLVQPGKSLRLSCAASGFTLEDEAMHWVRQAPGKGLEWVSGIDWNSEEIGYADSVKGRFTISRDNAKNSLYLQMNSLRTEDTALYYCAKVPGYSHGWIDAEDDWGQGTMVTVSS VL: not shown
– | – | – | – | – | 32 | 0.01 | 320000 | 370 | 0.022 | 61000 | 11.6 | 2.2 | – | P1-068771 (antibody, human IgG1, kappa, V domains shown, also called P1-068771-10; 029 progeny) VH: EVQLVESGGGLVQPGKSLRLSCAASGFTLEDEAMHWVRQAPGKGLEWVSGINWNSHEIGYADSVKGRFTISRDNAKNSLYLQMNSLRTEDTALYYCAKVPGYSGGWIDAEDDWGQGTMVTVSS VL: not shown
– | – | – | – | – | 29 | 0.0045 | 150000 | 420 | 0.013 | 31000 | 14.2 | 2.8 | – | P1-068765 (antibody, human IgG1, kappa, V domains shown, also called P1-068765-10; 029 progeny) VH: EVQLVESGGGLVQPGKSLRLSCAASGFTDEDYAMHWVRQAPGKGLEWVSGINWNSEEIGYADSVKGRFTISRDNAKNSLYLQMNSLRTEDTALYYCAKVPGYSGGWIDAEDDWGQGTMVTVSS VL: not shown
– | – | – | – | – | 24 | 0.01 | 420000 | 140 | 0.018 | 130000 | 5.8 | 1.7 | – | P1-068757 (antibody, human IgG1, kappa, V domains shown, also called P1-068757-9; 029 progeny) VH: EVQLVESGGGLVQPGKSLRLSCAASGFTLEDEAMHWVRQAPGKGLEWVSGINWNSEEIGYADSVKGRFTISRDNAKNSLYLQMNSLRTEDTALYYCAKVPGYSGGWIDAEDDWGQGTMVTVSS VL: not shown
212 | 9.9 | 920 | 0.036 | 40000 | – | – | – | – | – | – | – | – | Kd [10]: 1 nM; koff [10]: 0.0015 s⁻¹; kon [10]: 1.4e+06 M⁻¹ s⁻¹ | P1-068748 (antibody, human IgG1, kappa, V domains shown, IgG1.3; also called P1-068748-6) VH: QVQLVESGGGVVQPGRSLRLSCAASGFTFSHHAMHWVRQAPGKGLEWVAIIWYDGSNDDYADSVKGRFTISRDNSKNTLYLQMNSLRAEDTAVYYCARDSGFYDSYYFDYWGQGTLVTVSS VL: EIVLTQSPATLSLSPGERATLSCRASQSVSSSYLAWYQQKPGQAPRLLIYDASNRATGIPARFSGSGSGTDFTLTISSLEPEDFATYYCQQYNSYPYTFGQGTKLEIKR
